Data as given in patent US20240115742A1, “FLUORINATED FIBERS FOR MULTIMODAL 1H AND 19F MRI, ULTRASOUND, FLUORESCENCE DETECTION AND CONFORMATIONAL AND TEMPERATURE DETECTION BY 19F MRS” (New York University, priority 2022, published 2024).
“And” between values parts separate entries of the source, which are not always exact repeats. Equal entries are not always repeated.

Key:
[1] = Tube inversion concentration-temperature phase diagram; assay type: physicochemical; conditions: for solubility limit: 50 mM Tris, 500 mM NaCl, pH 8.0; for UCST: at solubility limit, extent of gelation η 0.5
Method: Tube Inversion Test. Immediately after concentration to 2 mM, the protein was incubated at 4° C. over the course of two weeks after aliquoting 150 μL into a 2 mL Eppendorf tube. The samples were visually assessed for gelation by inverting the tubes at 12-hour time intervals thereafter, with gelled samples not flowing upon inversion.
Gelation. To study the relative gelation of Q2 as compared to the previously reported coiled-coil hydrogel, Q, protein was successfully expressed (FIG. 24), purified (FIG. 25), and concentrated to 2 mM (1% w/v) in Tris buffer (50 mM Tris, 500 mM NaCl) at pH 8.0. Purity of the protein was measured to be >99% by SDS-PAGE (FIG. 26) and concentration was measured by BCA assay. Immediately following concentration, the gelation process of Q2 was studied using the microrheology assay described previously following incubation at 4° C. Separately, 150 μL samples were aliquoted for tube inversion tests performed after 2 weeks of incubation for visual assessment of gelation over time at 4° C. (FIG. 19a-d) and at concentrations from 1 mM to 3.5 mM with temperatures 5° C. to 25° C. using 0.5 mM and 5° C. step sizes, respectively, to create a matrix-based phase diagram (FIG. 19e). Temperature and concentration ranges were selected based on preliminary tube-inversion testing at high and low ends of the ranges.
Thermoresponsiveness and material strength. UCST behavior of protein hydrogels was assessed by testing […] samples via tube inversion in 2 mL microtubes after incubation for two weeks at various temperatures and concentrations. Temperature conditions were modulated in the range of 5-40° C. The concentration range was modified depending on if precipitation was visually noticeable in the microtube at an earlier concentration, indicating a solubility limit to our phase diagram, as has been done previously. […] As done with Q2, the UCST of the hydrogels was determined using a bivariate linear relationship for the extent of gelation where tubes that passed gelation by tube inversion were assigned a value of 1 (shown in black in FIG. 52a and FIG. 64a-d) and tubes that failed gelation by tube inversion (shown in red in FIG. 52a and FIG. 64a-d) were assigned a value of 0. The heatmap in FIG. 52a and FIG. 64a-d was used to denote the range of extent of gelation where the equation was employed to solve for the UCST using the solubility limit and solving for an extent of gelation, η, value of 0.5. The UCSTs (FIG. 52b) for the hydrogels studied here were 13.0° C., 35.9° C., 33.6° C., 17.5° C., and 22.9° C. for Q3-7, respectively, as compared to 17.0° C. for Q and 22.0° C. for Q2 found previously. Bivariate regression allowed for solving the coefficients for the dependence of temperature and concentration on gelation.
Tube Inversion. Binary sol-gel behavior was assessed using tube inversion. Immediately after concentration to 2 mM, 150 μL of Q hydrogel variants were incubated in 2 mL microtubes at 4° C. for two weeks. Gelation was visually observed by inverting the microtube and inspecting the sample for flow from the top of tube.

Parallel plate rheology = assay type: physicochemical; conditions: 10 Hz, 5% strain
Method: Rheology. Mechanical integrity of the Q2 hydrogel was assessed using a stress-controlled rheometer (Discovery Hybrid Rheometer 2, TA Instruments) equipped with a parallel plate geometry. After complete gelation of a 2 mM sample at 4° C., the sample was loaded onto the 8 mm diameter lower and upper plates with a 0.2 mm geometry gap. Strain and frequency settings were informed from previous Q hydrogel studies where the storage modulus (G′) and loss modulus (G″) were measured over the frequency range 0.1-10 Hz with a 5% oscillation strain.
Rheology. Q hydrogel variants were assessed for relative mechanical integrity with a stress-controlled rheometer (Discovery Hybrid Rheometer 2, TA Instruments) equipped with a parallel plate geometry. In parallel with microrheology measurements, 100 μL of each variant was incubated at 4° C. Upon gelation as assessed by microrheology, hydrogels were loaded onto an 8 mm diameter lower and upper plate with a 0.2 mm geometry gap. Storage modulus (G′) and loss modulus (G″) were measured from 0.1-10 Hz with 5% oscillation strain.

[2] = TEM of hydrogel nanofibers; assay type: physicochemical; conditions: gel after incubation at 4 °C
Method: Transmission Electron Microscopy. Transmission electron microscopy (TEM) images were taken with a FEI Talos L120C transmission electron microscope. The supramolecular assembly of Q2 and Q were monitored over the course of 60 and 144 hours, respectively (in correspondence with tube inversion and microrheology). TEM images were taken of the gel at times consistent with when microrheological measurements for Q2 for consistent fibril sizing. Samples were diluted to 50 μM and 3 μL was spotted on Formvar/carbon-coated copper grids followed by 5 μL wash with water, and 3 μL staining with 1% v/v uranyl acetate solution each with incubation times of 1 min. Following imaging, fibrils were sized in ImageJ software (Version 1.52q).
(§1) Transmission Electron Microscopy. Transmission electron microscopy (TEM) images were taken with a FEI Talos L120C transmission electron microscope. Samples were diluted to 50 μM and 3 μL was spotted on Formvar/carbon-coated copper grids followed by a L wash with water, and 3 μL staining with 1% v/v uranyl acetate solution each with incubation times of 1 min. Between steps, filter paper was used to gently wick the grids dry. Following imaging, minimum diameter nanofibers within the physically crosslinked hydrogel were sized in ImageJ software (Version 1.52q).

[3] = Fluorescence recovery after photobleaching (FRAP); conditions: one-phase association fit
Method: Protein fibrils are capable of blue autofluorescence as a result of protein self-assembly. Fluorescent recovery after photobleaching (FRAP) is measured by photobleaching using a 405 nm laser and measuring the spot intensity over time. This behavior was previously confirmed in the Q protein in a recent characterization. Using the correlation between autofluorescence and fibrilization, the relative autofluorescence of the coiled-coil protein hydrogels was measured. […] To assess the relative laser response, hydrogels were subjected to FRAP imaging using two 100% intensity bleaches at 405 nm excitation followed by imaging at 2 second frame intervals (FIG. 53c).
Confocal Imaging and Fluorescence Recovery After Photobleaching (FRAP). FRAP experiments were performed with a Stellaris 8 Falcon laser scanning confocal microscope on an inverted DMi8 CS stand equipped with 63X NA 1.4 lens. Images were taken with a laser at 405 nm excitation. A pre-bleach image was taken followed by two bleach images using 100% laser intensity for 1.5 s. Following, 41 images were taken post-bleach at 2 s intervals. To measure recovery, FIJI (version 2.3.0) was used to automate background and recovery imaging following photobleaching. Independent background intensities were fit to a one-phase decay equation in GraphPad Prism. Background loss, as a result of photobleaching, from fit values were added to spot intensity values before being fit to a one-phase association equation in GraphPad Prism.

TEM of protein fibers = assay type: physicochemical; conditions: fibers
Method: Transmission Electron Microscopy. Transmission electron microscopy (TEM) images were taken with a FEI Talos L120C transmission electron microscope. Protein fiber samples were diluted to 50 μM and 3 μL was spotted on Formvar/carbon-coated copper grids followed by 5 μL wash with water, and 3 μL staining with 1% v/v uranyl acetate solution each with incubation times of 1 min at RT. Fibrils were sized in ImageJ software (Version 1.52q).
as §1, with “a 5 μL” for “a L”, “to” for “to gently”, “the grids.” for “the grids dry.”, “imaging, fibrils” for “imaging, minimum diameter nanofibers within the physically crosslinked hydrogel”

## Q4: Q hydrogel variant from Rosetta Monte Carlo search, SEQ ID NO: 13 (MRGSHHHHHHGSIEGRVKEITFIKKTIEQIAEEMKEINKAIHDIRHALENISKK) [Protein Q4]
[1]
  solubility limit: 4000 µM
  UCST: 35.9 °C
Parallel plate rheology
  loss modulus G″: 15.0 ± 3.2 Pa
  storage modulus G′: 70±20 Pa and 69.9 ± 19.7 Pa
[2]
  hydrogel fibril diameter (TEM): 27.2±8.7 nm
[3]
  Halftime: 5.7 s
  K: 0.1 s⁻¹
  Tau: 8.2 s

## Q6: Q hydrogel variant from trimodal Monte Carlo search, SEQ ID NO: 15 (MRGSHHHHHHGSIEGRVKEITFIKKQIEQIAEEMKEINKAIHDIRHALENISKK) [Protein Q6]
[1]
  solubility limit: 3000 µM
  UCST: 17.5 °C
Parallel plate rheology
  loss modulus G″: 13±6 Pa and 13.0 ± 5.7 Pa
  storage modulus G′: 253±123 Pa and 252.9 ± 122.7 Pa
[2]
  hydrogel fibril diameter (TEM): 39.9±16.9 nm
[3]
  Halftime: 5.1 s
  K: 0.1 s⁻¹
  Tau: 7.3 s

## Q7: Q hydrogel variant from trimodal Monte Carlo search, SEQ ID NO: 16 (MRGSHHHHHHGSIEGRVKEMTFIKKTIEQQAEEMKEINKAIHDIRHALENISKK) [Protein Q7]
[1]
  solubility limit: 3000 µM
  UCST: 22.9 °C
Parallel plate rheology
  loss modulus G″: 21±8 Pa and 20.6 ± 7.9 Pa
  storage modulus G′: 298±62 Pa and 297.5 ± 61.7 Pa
[2]
  hydrogel fibril diameter (TEM): 36.3±10.8 nm
[3]
  Halftime: 9.7 s
  K: 0.1 s⁻¹
  Tau: 13.9 s

## Q9: Monte-Carlo output sequence with increased ΔEEbcf from the Q domain; probably SEQ ID NO: 18 (MRGSHHHHHHGSIEGRVKEIKFLKNTAPQQLRELQNTNMALQDVRELLQQQSTL) [Protein Q9]
TEM of protein fibers
  fiber diameter, largest population of sizes: 1280±330 nm
TEM of protein fibers; 50 mM NaH2PO4 pH 4.0
  average protein fiber diameter (TEM): 760±170 nm
